Assay [1] has as its target T1, human TIGIT over-expressed on cells (human, UniProt Q495A1 22-244).
T1 construct: also called CHO-K1/human TIGIT cells; CHO cells expressing human TIGIT
T1 sequence: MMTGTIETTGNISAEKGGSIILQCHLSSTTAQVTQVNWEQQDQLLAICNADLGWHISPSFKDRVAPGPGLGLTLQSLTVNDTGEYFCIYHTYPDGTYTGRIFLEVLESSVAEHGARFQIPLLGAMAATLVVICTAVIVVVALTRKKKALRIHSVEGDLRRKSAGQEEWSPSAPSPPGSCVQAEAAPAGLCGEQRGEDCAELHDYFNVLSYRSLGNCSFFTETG
As to the kind of experiment: FACS, CHO-K1 cells over-expressing human TIGIT. As to the method:
(§1) The mixture was equilibrated for 30 minutes at room temperature and washed three times with FACS buffer (PBS containing 1% BSA). iFluor labeled goat anti-mouse IgG as the secondary antibody was added and incubated at room temperature for 45 min. Finally, the cells were washed 3 time with PBS, and the signal was read by FACS BD Calibur. Data was analyzed with PRISM™ (GraphPad Software, San Diego, Calif.) using non-linear regression and EC₅₀ values were calculated.
In general terms: Flow cytometry measures light scatter and fluorescence of single cells or particles in a stream.

In assay [2] the target is T2, Human TIGIT protein with HIS tag (human, UniProt Q495A1 22-141).
T2 construct: A soluble analyte is probably only the extracellular part; also called human TIGIT recombinant protein; not shown: HIS tag
T2 sequence: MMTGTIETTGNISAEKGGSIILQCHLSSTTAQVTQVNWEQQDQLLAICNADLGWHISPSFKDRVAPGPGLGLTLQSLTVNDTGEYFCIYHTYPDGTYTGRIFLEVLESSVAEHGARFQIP
The experiment in a line: SPR Biacore T200; antibody Fc-captured, TIGIT-His analyte. On the procedure:
Binding kinetics of mouse anti-human TIGIT monoclonal antibodies to human TIGIT were determined using a Surface Plasmon Resonance (SPR) biosensor, BIACORE® T200 (GE Healthcare; Little Chalfont, United Kingdom). […] Each mouse anti-human TIGIT monoclonal antibody was immobilized on the sensor chip through the Fc capture method. Human TIGIT protein with HIS tag was used as the analyte. The dissociation (kd) and association (kₐ) rate constants were obtained using the BIACORE® T200 evaluation software. The apparent equilibrium dissociation constants (KD) were calculated from the ratio of kd over kₐ.
A general note: In SPR one partner is held on a chip, and binding of the other changes the refractive index at the surface.

For assay [3], the target named is T1, human TIGIT over-expressed on cells. The experiment in a line: competition FACS, CHO cells expressing human TIGIT; competitor PVR recombinant protein. As to the method: The mixture was equilibrated for 30 minutes at room temperature, and washed three times with FACS buffer (PBS containing 1% BSA). PE/Cy5 Streptavidin secondary antibody was then added to the mixtures and incubated for 15 minutes at room temperature. Subsequently, the cells were washed with FACS buffer and analyzed by flow cytometry. Data was analyzed with PRISM™ (GraphPad Software, San Diego, Calif.) using non-linear regression, and IC₅₀ values were calculated (FIGS. 4A-4B and Table 6).

The target is the same in assay [4]. The experiment in a line: cell-based or functional assay.
Assay [5] shares this target. The experiment in a line: cell-based or functional assay. The source holds these as a separate data set.
The target in assay [6] is T3, cynomolgus TIGIT over-expressed on CHO-K1 cells (cynomolgus, UniProt A0A7N9I9V4 89-312).
T3 construct: whole, on cells; also called CHO-K1/cynomolgus TIGIT cells
As to the kind of experiment: FACS, CHO-K1 cells over-expressing cynomolgus TIGIT. As to the method: as §1

These results are taken from patent publication US20210095028A1 (NANJING LEGEND BIOTECH, published 2021).

T3 sequence (A0A7N9I9V4 entry or part of it): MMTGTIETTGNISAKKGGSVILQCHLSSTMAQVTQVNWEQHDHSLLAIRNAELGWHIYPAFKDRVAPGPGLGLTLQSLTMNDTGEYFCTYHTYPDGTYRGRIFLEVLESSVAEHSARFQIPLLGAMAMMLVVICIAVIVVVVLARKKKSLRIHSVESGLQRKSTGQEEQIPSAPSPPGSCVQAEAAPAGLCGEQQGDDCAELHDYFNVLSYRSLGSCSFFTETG

B1: 48B5G4E12 (antibody, V domains shown)
VH: QVQLQQPGAELVKPGASVKMSCKASGYTFTSYNMHWVKQTPGQGLEWIGGIYPGNGATSYNQKFKGKATLTADKSSSTAYMQLSSLTSEDSAVYYCARSGLRAMDYWGQGTSVTVSS
VL: QIVLTQSPAIMSASPGEKVTMTCSASSSVSYMYWYQQKTGSSPRLLIYDTSNLASGVPVRFSGSGSGTSYSLTISRMEAEDAATYYCQQWSSYPYTFGGGTKLEIK
notes: Mouse monoclonal antibody; also called mouse anti-human TIGIT monoclonal antibody 48B5G4E12
One may read the EC50 as the midpoint of the concentration-response curve. The Kd is the concentration at which binding is half-saturated. Read a high Kd as weaker binding. For orientation: koff means the first-order rate constant of dissociation. A higher koff goes with a short-lived complex. A word on the kon: it is a measure of how fast the partners come together. Read a high kon as fast association. A word on the IC50: it is the concentration that gives 50% inhibition. As to B1, in assay [1], the “Bottom (best-fit)” value is 9.18, it took 3.15 nM to reach a half-maximal effect (EC50) and the “Top (best-fit)” value stood at 346. In assay [2], this molecule displayed a Kd of 11 nM, a koff of 0.0088 s⁻¹ and a kon of 840000 M⁻¹ s⁻¹. Also, in assay [3], the “Bottom (best-fit)” value was determined as 64.6, the IC50 was 1.6 nM and the “Top (best-fit)” value turned out to be 132.

B2: 100C4E7D11 (antibody, V domains shown)
VH: EVMLVESGGGLVKPGGSLKLSCAASGFTFSFYTMSWVRQTPEKRLEWVATISSGGGSTYYSDSVKGRFTISRDNAKNNLYLQMTSLRSEDTALYYCSRSLPVDYWGQGTTLTVSS
VL: QIVLTQSPAIMSASLGERVTMTCTASSSVSSTYLHWYQQKPGSSPKLWIYSTSNLASGVPARFSGSGSGTSYSLTISSMEAEDAATYYCHLYHHSPYTFGGGTKLEIK
notes: Mouse monoclonal antibody; also called mouse anti-human TIGIT monoclonal antibody 100C4E7D11
As for B2, in assay [4], the “IL-2 secretion in T cell activation, Bottom (best-fit)” value is 107; the “IL-2 secretion in T cell activation, EC50” value came out at 0.98 nM; the “IL-2 secretion in T cell activation, Top (best-fit)” value is 191. Further, in assay [5], the “luciferase signal in T cell activation, Bottom (best-fit)” value worked out at 11.6; the “luciferase signal in T cell activation, EC50” value turned out to be 3.46 nM; the “luciferase signal in T cell activation, Top (best-fit)” value turned out to be 117. In assay [6], the “Bottom (best-fit)” value was determined as 16.9, a half-maximal effect (EC50) was put at 1.16 nM and the “Top (best-fit)” value amounted to 410. Further, in assay [1], the “Bottom (best-fit)” value is 14, the response was half-maximal at 0.81 nM (EC50) and the “Top (best-fit)” value was determined as 107. In assay [2], this molecule returned a Kd of 0.51 nM, a koff of 0.00033 s⁻¹ and a kon of 650000 M⁻¹ s⁻¹. In assay [3], the “Bottom (best-fit)” value is 12.9, the IC50 was 1.2 nM and the “Top (best-fit)” value worked out at 66.5.

B3: 8F2D8E7 (antibody, V domains shown)
VH: QVQLQQSGAELVKPGASVKLSCKTSGYTFTSYWIQWIKQRPGQGLGWIGEIFPGTGTTYYNEKFKGKATLTIDTSSSTAYMQLSSLTSEDSAVYSCARSRDGKVVDYWGQGTSVTVSS
VL: DVQMTQTTSSLSASLGDRVTISCRASQDISNFLNWYQQRPDGTVKLLIYYTSKLHSGVPSRFSGSGSGTDYSLTIRNLEKEDIATYFCQQGNTPPYTFGGGTKLEIK
notes: Mouse monoclonal antibody; also called mouse anti-human TIGIT monoclonal antibody 8F2D8E7
As to B3, in assay [1], the “Bottom (best-fit)” value stood at 12.9, a half-maximal response (EC50) required 1.28 nM and the “Top (best-fit)” value worked out at 276. Besides, in assay [2], binding was characterised by a dissociation constant (Kd) of 2.6 nM, the koff came out at 0.0033 s⁻¹ and the kon was determined as 1.3e+06 M⁻¹ s⁻¹. Further, in assay [3], the “Bottom (best-fit)” value is 11.2, the IC50 turned out to be 0.9 nM and the “Top (best-fit)” value was found to be 131.

B4: 70A11A8E6 (antibody, V domains shown)
VH: DVQLQESGPGLVKPSQSLSLTCTVTGYSITSDYAWNWIRQFPGNKLEWMGYIIYSGSTSYNPSLKSRISITRDTSKNQFFLQLNSVTTEDTATYYCARGWFRRPDYWGQGTTLTVSS
VL: DIVMTQSHEFMSTSLGDRVSITCKASQDVSTAVAWHQQKPGQSPKQLIYSASYRYTGVPDRFTGSGSGTDFTFTISNMQAEDLAVYYCQQHYSVPLTFGAGTKLELK
notes: Mouse monoclonal antibody; also called mouse anti-human TIGIT monoclonal antibody 70A11A8E6
B4: in assay [1], the “Bottom (best-fit)” value was found to be 11, it took 0.96 nM to reach a half-maximal effect (EC50) and the “Top (best-fit)” value came out at 263. In assay [2], this molecule returned a Kd of 5.2 nM, an off-rate (koff) of 0.0044 s⁻¹ and an on-rate (kon) of 860000 M⁻¹ s⁻¹. In assay [3], the “Bottom (best-fit)” value stood at 19.6, the IC50 stood at 0.7 nM and the “Top (best-fit)” value was found to be 113.

B5: 128E3G7F5 (antibody, V domains shown)
VH: EVLLQQSGPELVKTGASVKISCKASGYSFTAYYMHWVKQSHGKSLEWIGYISCYNGATTYNQKFKGKATFTVDTSSTTAYMQFNSLTSEDSAVYYCARRVYYGYDEALVYWGQGTSVTVSS
VL: DIVMTQSPSSLSVSAGEKVTMTCKSSQSLLNSGNQKNYLAWYQQKPGQPPKLLIYGASTRGSGVPDRFTGSGSGTDFTLTISSVQAEDLAVYYCQNDHSYPYTFGGGTKLEIK
notes: Mouse monoclonal antibody; also called mouse anti-human TIGIT monoclonal antibody 128E3G7F5
On to B5, for which, in assay [5], the “luciferase signal in T cell activation, Bottom (best-fit)” value turned out to be 4.5; the “luciferase signal in T cell activation, EC50” value was 8.54 nM; the “luciferase signal in T cell activation, Top (best-fit)” value is 99. In assay [6], the “Bottom (best-fit)” value was found to be 7.5, the EC50 is 8.38 nM and the “Top (best-fit)” value came to 66.2. Further, in assay [1], the “Bottom (best-fit)” value came out at 16.2, the EC50 stood at 0.3 nM and the “Top (best-fit)” value amounted to 98.7. In assay [2], this molecule returned a Kd of 6.7 nM, a koff of 0.008 s⁻¹ and a kon of 1.2e+06 M⁻¹ s⁻¹. Further, in assay [3], the “Bottom (best-fit)” value was determined as 8.8, the IC50 stood at 1.1 nM and the “Top (best-fit)” value came out at 69.7.

B6: 139E2C2D2 (antibody, V domains shown)
VH: EVQLVESGGDLVKPGGSLKLSCAASGFTFSSYGMSWVRQTPDKRLEWVAIISSGGNYTYYPDSVKGRFTISRDNAKNTLYLQMSSLKSEDTAMYYCARQIHYFFAMDYWGQGTSVTVSS
VL: DIQMTQSPASLSVSVGETVTITCRASENIYSNLAWYQQKQGKSPQLLVYAATNLADGAPSRFSGSRSGTQYSLKINSLQSEDFGSYYCQHFWGTAYTFGGGTKLEIK
notes: Mouse monoclonal antibody; also called mouse anti-human TIGIT monoclonal antibody 139E2C2D2
In the case of B6, in assay [6], the “Bottom (best-fit)” value turned out to be 7.6, the EC50 is 18.5 nM and the “Top (best-fit)” value was 53.8. Further, in assay [1], the “Bottom (best-fit)” value was 13.8, the EC50 stood at 0.37 nM and the “Top (best-fit)” value amounted to 89.9. In assay [2], this molecule displayed a Kd of 3 nM, a koff of 0.0062 s⁻¹ and a kon of 2.1e+06 M⁻¹ s⁻¹. In assay [3], the “Bottom (best-fit)” value was 10.4, the IC50 is 0.7 nM and the “Top (best-fit)” value came out at 73.8.

B7: 11D8E12A4 (antibody, V domains shown)
VH: EVLLQQSGPELVKPGASVKIPCKASGYTFTDYNMDWVKQSHGKSLEWIGDINPNNGGTIYNQKFKGKATLTVDKSSSTAYMELRSLTSEDTAVYYCARRWLLLVYTMDYWGQGTSVTVSS
VL: QIVLTQSPAIMSASPGEKVTISCSASSSVSYMYWYQQKPGSSPKPWIYRTSNLASGVPARFSGSGSGTSYSLTISSMEAEDAATYYCHQYHNYPPTFGGGTKLEIK
notes: Mouse monoclonal antibody; also called mouse anti-human TIGIT monoclonal antibody 11D8E12A4
Turning to B7, in assay [1], the “Bottom (best-fit)” value amounted to 8.3, the response was half-maximal at 16.3 nM (EC50) and the “Top (best-fit)” value was 159. Also, in assay [2], the Kd stood at 14 nM, the koff worked out at 0.0087 s⁻¹ and the kon worked out at 640000 M⁻¹ s⁻¹. Further, in assay [3], the “Bottom (best-fit)” value came out at 21.2, the IC50 came out at 73.5 nM and the “Top (best-fit)” value was 108.

B8: 16F10H12C11 (antibody, V domains shown)
VH: EVLLQQSGPELVKPGASVKIPCKASGYTFTDYNIDWVKQSHGKSLEWIGDINPNTGGTIYNQKFKGKATLTVDKSSSTAYMELRSLTSEDTAVYYCARRWLLLVYAVDYWGQGTSVTVSS
VL: QIVLTQSPAIMSASPGEKVTISCSASSSVTYMYWYQQKAGSSPKPWIYRTSNLASGVPARFGGSGSGTSYSLTISSMEAEDAATYYCQQYHSFPPTFGGGTKLEIK
notes: Mouse monoclonal antibody; also called mouse anti-human TIGIT monoclonal antibody 16F10H12C11
With B8, in assay [1], the “Bottom (best-fit)” value is 6.83, the EC50 turned out to be 11.2 nM and the “Top (best-fit)” value was determined as 188. In assay [2], this molecule displayed a Kd of 18 nM, a koff of 1.2 s⁻¹ and a kon of 6.7e+07 M⁻¹ s⁻¹.
